Experimental data: patent US20240043558A1 (SHANGHAI HENLIUS BIOTECH, published 2024)

Legend:
[1] = target: GPC3 expressed endogenously on HepG2 and Hep3B human hepatoma cells (human) (UniProt P51654); assay: flow cytometry on Hep3B cells (endogenous GPC3), MFI
[2] = target: GPC3 expressed endogenously on HepG2 and Hep3B human hepatoma cells (human) (UniProt P51654); assay: flow cytometry on HepG2 cells (endogenous GPC3), MFI
[3] = target: recombinant human GPC3 protein (human) (UniProt P51654); assay: ELISA on plate-coated human GPC3, OD 450 nm
[4] = target: T1, GPC3 expressed endogenously on HepG2 and Hep3B human hepatoma cells (human, UniProt P51654 25-554); assay: flow cytometry on HepG2 cells (endogenous GPC3), MFI
T1 construct: Endogenous GPC3 of human hepatoma lines; also called HepG2 cells; Hep3B cells
T1 sequence (P51654 other isoform, or with tags, fused parts or gaps limits assumed, form in doubt): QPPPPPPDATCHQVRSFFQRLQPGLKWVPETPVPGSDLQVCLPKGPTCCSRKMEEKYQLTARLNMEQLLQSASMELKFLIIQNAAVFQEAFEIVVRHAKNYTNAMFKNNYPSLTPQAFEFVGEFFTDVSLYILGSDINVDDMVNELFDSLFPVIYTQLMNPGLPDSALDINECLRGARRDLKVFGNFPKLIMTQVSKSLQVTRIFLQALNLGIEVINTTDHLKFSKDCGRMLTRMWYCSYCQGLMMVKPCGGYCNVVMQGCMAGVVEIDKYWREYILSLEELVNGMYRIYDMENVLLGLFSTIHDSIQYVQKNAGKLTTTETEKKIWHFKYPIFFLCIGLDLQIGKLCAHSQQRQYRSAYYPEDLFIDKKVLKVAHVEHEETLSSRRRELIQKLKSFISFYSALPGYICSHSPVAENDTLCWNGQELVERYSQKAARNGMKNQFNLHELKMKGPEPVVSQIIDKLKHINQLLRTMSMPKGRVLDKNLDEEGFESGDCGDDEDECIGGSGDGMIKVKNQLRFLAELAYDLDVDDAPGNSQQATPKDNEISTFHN

Chain of GPC3 expressed endogenously on HepG2 and Hep3B human hepatoma cells (human) (P51654 other isoform, or with tags, fused parts or gaps limits assumed, form in doubt): as above
Chain of recombinant human GPC3 protein (human) (P51654 other isoform, or with tags, fused parts or gaps limits assumed, form in doubt): as above

EC50 (read off the curve) [1] | EC50 (read off the curve) [2] | EC50 (read off the curve) [3] | EC50 (read off the curve) [4] | Molecule
2 nM | 2 nM | 0.02 µg/mL |  | HN3 VHH-Fc (Fc fusion)
 |  |  | ~0.3 nM | 1B01 llama-human chimeric bivalent VHH-Fc (Fc fusion, expressed in ExpiCHO; also called Clone 1B01; 1B01 llama VHH fused to human IgG1 Fc; not shown: human IgG1 Fc fused to the C-terminal of the VHH) QVQLQESGGGLVQAGGSLRLSCAAVGLPFSNYAMGWFRQAPGEEREFVSAVSANGGNEYYADSVKDRFTISRDNAKNTVYLRMLSLKLEDTAIYYCATVRRRGGTFTVGSYRGQGTQVTVSS
